According to article PMC6297355, “Myopathy associated BAG3 mutations lead to protein aggregation by stalling Hsp70 networks” (Nature Communications, 2018):

Target: the molecule itself
Assay: SEC-MALS; 30 µM BAG3 solutions separated on Shodex 804, in-line DAWN HELEOS and Optilab rEX detectors

| Protein | binding result |
| --- | --- |
| BAG3^P209L (recombinant) (natural protein, BAG3, human, disease mutation P209L in the second IPV motif; Forms soluble higher order oligomers by SEC-MALS; source: E. coli BL21(DE3), purified (Ni-NTA, TEV cleavage, MonoQ)) not shown | binds |
| BAG3^P209I (recombinant) (natural protein, BAG3, human, P209I; source: E. coli BL21(DE3), purified (Ni-NTA, TEV cleavage, MonoQ)) not shown | binds |
| BAG3^P209W (recombinant) (natural protein, BAG3, human, P209W; source: E. coli BL21(DE3), purified (Ni-NTA, TEV cleavage, MonoQ)) not shown | binds |
